Patent US20170183404A1 (VIB VZW, published 2017)
Changes are numbered by the printed parent chain.

B1: XA8727 (VHH)
VHH: QVQLVESGGGLVQAGGSLRLSCAASGFTFDDYAIAWFRQAPGKEREGVSCISSSDGSTYYADSVKGRFTISNDNAKNTVYLQMNSLKPEDTAVYYCAADLSRSCGRGYRYLEVWGQGTQVTVSS
notes: Tested as periplasmic extract; also called 599D2; Profile III VHH
B2: XA8635 (VHH)
VHH: QVQLVESGGGLVQAGGSLRLSCAASGSISSISTMGWYRQAPGNERELVAAITSGGSTNYADSVKGRFTISRDNAKNTVYLQMNSLKPEDTAVYYCNFKYYSGSYFYKSEYDYWGQGTQVTVSS
notes: Tested as periplasmic extract and as purified protein; also called 601H10; monovalent XA8635
B3: XA8643 (VHH)
VHH: QVQLVESGGGLVRPGGSLRLSCVDSERTSYPMGWFRRAPGKEREFVASITWSGIDPTYADSVADRFTISRDVANNTLYLQMNSLKHEDTAVYYCAARAPVGQSSSPYDYDYWGQGTQVTVSS
notes: Tested as periplasmic extract; also called 598G11; X8643
B4: XA8641 (VHH)
VHH: B3 VHH with E26G
notes: Tested as periplasmic extract; also called 598A2; Profile I VHH
B5: XA8639 (VHH)
VHH: B3 VHH with I68T
notes: also called 598A7; Nb39

Target: T1, truncDelta mMor1 reconstituted in liposomes (mouse, UniProt P42866 52-358)
T1 construct: The assayed protein lacks the N-terminal part before the TEV site and the C-terminal part after the 3C site; It was purified, doped with Dmt1-Dalda and reconstituted in DOPC/CHS/lipid A vesicles; also called truncDelta mMor1 liposome; recombinant mMOR1 reconstituted in liposomes
Assay: ELISA (OD405), five-fold diluted periplasm, 10 µM Dmt1-Dalda; reference: mock liposomes
Experimental: DNPP (Sigma, cat nr 71768) was used to develop the colorimetric signal. Absorbance was measured at OD405 nm and results are depicted in FIG. 6. […] All VHHs tested confirm specific binding to truncDelta mMor1 reconstituted in liposomes. As truncDelta mMor1 is truncated at its N- and C-terminus, most likely these VHHs interact with extracellular or intracellular Mor1 conformational epitopes.

T1 sequence (P42866 52-358, tags or fused parts left off): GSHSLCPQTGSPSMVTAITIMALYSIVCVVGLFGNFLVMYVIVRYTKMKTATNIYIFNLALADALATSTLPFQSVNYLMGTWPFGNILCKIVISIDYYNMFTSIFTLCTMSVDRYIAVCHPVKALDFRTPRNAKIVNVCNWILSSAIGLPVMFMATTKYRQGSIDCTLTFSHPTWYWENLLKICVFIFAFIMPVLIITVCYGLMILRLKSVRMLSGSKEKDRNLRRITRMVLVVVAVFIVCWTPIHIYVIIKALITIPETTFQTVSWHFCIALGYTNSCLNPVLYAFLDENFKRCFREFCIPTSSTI

absorbance on truncDelta mMor1 liposomes relative to mock liposomes [fold]	Binder
≥ 3	B1
≥ 3	B2
≥ 3	B3
≥ 3	B4
≥ 3	B5

Target: T2, wild-type human Mor1 (human mu-type opioid receptor) (human, UniProt P35372 1-400)
T2 construct: Used as CHO membranes (Perkin Elmer ES-542-M400UA) in the radioligand assay and on transfected CHO cells in flow cytometry; also called WT hMor1/CHO; hMor1/CHO
Assay: displacement of 1 nM [3H]-diprenorphine from WT hMor1/CHO membranes by a concentration range of XA8635
Experimental: The mixture was incubated for 1 hour at RT and after washing, filter bound radioligand was measured.

T2 sequence (P35372 whole entry): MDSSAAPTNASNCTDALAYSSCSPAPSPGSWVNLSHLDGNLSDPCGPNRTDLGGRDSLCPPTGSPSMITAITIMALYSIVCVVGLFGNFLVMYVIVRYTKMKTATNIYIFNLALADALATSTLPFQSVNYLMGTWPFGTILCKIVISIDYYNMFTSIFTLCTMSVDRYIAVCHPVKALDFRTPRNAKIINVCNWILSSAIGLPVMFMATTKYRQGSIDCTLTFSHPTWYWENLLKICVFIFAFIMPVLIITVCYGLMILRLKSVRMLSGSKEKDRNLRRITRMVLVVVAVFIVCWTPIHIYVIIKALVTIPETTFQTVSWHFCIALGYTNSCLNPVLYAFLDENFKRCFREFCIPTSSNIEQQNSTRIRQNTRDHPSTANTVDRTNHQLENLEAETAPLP

binding result	Binder
binds	B2
